Our source for the Kd values is paper PMC6704107 (2019).

One experiment deals with T1, AAVR PKD1-5 D435A (UniProt Q8IZA0-1 1-1049, D435A).
T1 sequence: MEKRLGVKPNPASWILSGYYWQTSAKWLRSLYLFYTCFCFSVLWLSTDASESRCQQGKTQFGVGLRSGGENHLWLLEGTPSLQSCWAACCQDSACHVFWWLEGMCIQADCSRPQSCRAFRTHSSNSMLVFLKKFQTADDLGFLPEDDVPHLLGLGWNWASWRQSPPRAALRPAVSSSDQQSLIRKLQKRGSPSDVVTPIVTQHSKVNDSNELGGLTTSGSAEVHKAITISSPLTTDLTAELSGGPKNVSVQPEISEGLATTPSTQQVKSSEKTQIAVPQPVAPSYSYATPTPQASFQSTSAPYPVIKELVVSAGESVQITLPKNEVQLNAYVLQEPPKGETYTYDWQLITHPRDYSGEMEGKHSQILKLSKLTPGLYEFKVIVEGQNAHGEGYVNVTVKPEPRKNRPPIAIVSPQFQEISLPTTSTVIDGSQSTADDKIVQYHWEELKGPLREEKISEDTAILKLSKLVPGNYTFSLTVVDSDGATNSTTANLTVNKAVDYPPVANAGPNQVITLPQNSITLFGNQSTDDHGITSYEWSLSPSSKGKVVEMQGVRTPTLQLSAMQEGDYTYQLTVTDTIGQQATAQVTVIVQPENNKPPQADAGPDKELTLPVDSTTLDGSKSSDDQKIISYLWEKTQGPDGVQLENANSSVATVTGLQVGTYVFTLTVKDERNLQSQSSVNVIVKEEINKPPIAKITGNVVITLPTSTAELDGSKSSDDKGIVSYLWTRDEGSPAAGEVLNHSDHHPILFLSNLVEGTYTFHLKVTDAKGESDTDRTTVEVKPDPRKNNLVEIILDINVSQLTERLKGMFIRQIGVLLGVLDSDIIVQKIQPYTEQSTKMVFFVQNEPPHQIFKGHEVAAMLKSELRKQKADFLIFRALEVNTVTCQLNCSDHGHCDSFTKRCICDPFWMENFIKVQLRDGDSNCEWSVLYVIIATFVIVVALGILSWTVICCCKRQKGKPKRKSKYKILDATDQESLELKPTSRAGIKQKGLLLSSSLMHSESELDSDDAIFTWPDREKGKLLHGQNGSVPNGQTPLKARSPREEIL
As to the kind of experiment: SPR. For orientation: SPR reads the build-up and loss of mass on a sensor chip optically.

For a further experiment, the target named is T2, AAVR PKD1-5 S425A (UniProt Q8IZA0-1 1-1049, S425A).
T2 sequence: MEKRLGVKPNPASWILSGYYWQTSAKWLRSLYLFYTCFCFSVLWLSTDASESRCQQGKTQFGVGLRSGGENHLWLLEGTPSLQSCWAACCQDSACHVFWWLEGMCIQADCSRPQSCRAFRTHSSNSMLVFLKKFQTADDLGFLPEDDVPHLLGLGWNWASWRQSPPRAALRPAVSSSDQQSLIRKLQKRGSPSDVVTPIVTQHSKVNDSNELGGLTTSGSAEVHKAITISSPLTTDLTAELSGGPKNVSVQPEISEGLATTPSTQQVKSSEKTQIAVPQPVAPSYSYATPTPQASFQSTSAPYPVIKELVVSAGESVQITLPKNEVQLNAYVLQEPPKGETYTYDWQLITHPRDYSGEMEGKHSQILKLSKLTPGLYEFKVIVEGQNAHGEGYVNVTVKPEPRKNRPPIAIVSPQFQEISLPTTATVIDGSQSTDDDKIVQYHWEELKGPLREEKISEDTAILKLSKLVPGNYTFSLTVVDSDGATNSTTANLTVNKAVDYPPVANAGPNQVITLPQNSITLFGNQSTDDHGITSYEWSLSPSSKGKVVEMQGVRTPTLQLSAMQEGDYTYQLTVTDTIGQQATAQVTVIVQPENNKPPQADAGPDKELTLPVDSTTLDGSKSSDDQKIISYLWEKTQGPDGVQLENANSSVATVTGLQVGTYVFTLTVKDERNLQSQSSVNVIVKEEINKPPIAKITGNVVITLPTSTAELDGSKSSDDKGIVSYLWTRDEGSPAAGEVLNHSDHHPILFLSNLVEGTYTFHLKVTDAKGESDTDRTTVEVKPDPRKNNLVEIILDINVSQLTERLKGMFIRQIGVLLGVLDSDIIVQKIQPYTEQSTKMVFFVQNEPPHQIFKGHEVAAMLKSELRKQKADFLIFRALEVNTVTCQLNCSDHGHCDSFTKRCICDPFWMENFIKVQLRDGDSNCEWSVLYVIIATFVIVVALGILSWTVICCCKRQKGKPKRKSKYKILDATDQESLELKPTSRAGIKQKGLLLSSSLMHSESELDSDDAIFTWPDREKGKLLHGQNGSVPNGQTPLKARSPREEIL
As to the kind of experiment: SPR.

B1: Adeno-associated virus 1 (AAV1) particle, wild-type capsid (complex)
chain: MAADGYLPDWLEDNLSEGIREWWDLKPGAPKPKANQQKQDDGRGLVLPGYKYLGPFNGLDKGEPVNAADAAALEHDKAYDQQLKAGDNPYLRYNHADAEFQERLQEDTSFGGNLGRAVFQAKKRVLEPLGLVEEGAKTAPGKKRPVEQSPQEPDSSSGIGKTGQQPAKKRLNFGQTGDSESVPDPQPLGEPPATPAAVGPTTMASGGGAPMADNNEGADGVGNASGNWHCDSTWLGDRVITTSTRTWALPTYNNHLYKQISSASTGASNDNHYFGYSTPWGYFDFNRFHCHFSPRDWQRLINNNWGFRPKRLNFKLFNIQVKEVTTNDGVTTIANNLTSTVQVFSDSEYQLPYVLGSAHQGCLPPFPADVFMIPQYGYLTLNNGSQAVGRSSFYCLEYFPSQMLRTGNNFTFSYTFEEVPFHSSYAHSQSLDRLMNPLIDQYLYYLNRTQNQSGSAQNKDLLFSRGSPAGMSVQPKNWLPGPCYRQQRVSKTKTDNNNSNFTWTGASKYNLNGRESIINPGTAMASHKDDEDKFFPMSGVMIFGKESAGASNTALDNVMITDEEEIKATNPVATERFGTVAVNFQSSSTDPATGDVHAMGALPGMVWQDRDVYLQGPIWAKIPHTDGHFHPSPLMGGFGLKNPPPQILIKNTPVPANPPAEFSATKFASFITQYSTGQVSVEIEWELQKENSKRWNPEVQYTSNYAKSANVDFTVDNNGLYTEPRPIGTRYLTRPL
With B1, the dissociation constant Kd (in general, the equilibrium constant for the complex coming apart) came to 13.6 µM in the experiment with AAVR PKD1-5 D435A and 3.88 µM with AAVR PKD1-5 S425A.
